The values below come from article PMC5677083, “Characterization of ApoJ-reconstituted high-density lipoprotein (rHDL) nanodisc for the potential treatment of cerebral β-amyloidosis” (Scientific Reports, 2017).

The series concerns the molecule itself. As to the kind of experiment: SEC; purified rApoJ on a size exclusion column; wide peak at 12-16 ml and a homogeneous peak at 16-18 ml (maximum 16.5 ml) of the elution volume; column and buffer are in the Supplementary Information. (Size exclusion chromatography separates by hydrodynamic size, large species first.)

B1: recombinant human ApoJ (rApoJ), free (non-lipidated) (natural protein)
chain 1: DQTVSDNELQEMSNQGSKYVNKEIQNAVNGVKQIKTLIEKTNEERKTLLSNLEEAKKKKEDALNETRESETKLKELPGVCNETMMALWEECKPCLKQTCMKFYARVCRSGSGLVGRQLEEFLNQSSPFYFWMNGDRIDSLLENDRQQTHMLDVMQDHFSRASSIIDELFQDRFFTREPQDTYHYLPFSLPHRRPHFFFPKSRIVR
chain 2: SLMPFSPYEPLNFHAMFQPFLEMIHEAQQAMDIHFHSPAFQHPPTEFIREGDDDRTVCREIRHNSTGCLRMKDQCDKCREILSVDCSTNNPSQAKLRRELDESLQVAERLTRKYNELLKSYQWKMLNTSSLLEQLNEQFNWVSRLANLTQGEDQYYLRVTTVASHTSDSDVPSGVTEVVVKLFDSDPITVTVPVEVSRKNPKFMETVAEKALQEYRKKHREE
notes: apolipoprotein J (clusterin), human, beta chain: cut product of the precursor, disulfide-bonded to the alpha chain; apolipoprotein J (clusterin), human, alpha chain: cut product of the precursor, disulfide-bonded to the beta chain; Heterodimer of alpha and beta chains (about 40 kDa each, about 77 kDa non-reduced); They are written on the alpha chain on the surmise that they sit at the C-terminus …
B1: the binding result is “binds”.
